Test results published in PMC10786891, “Massively parallel profiling of RNA-targeting CRISPR-Cas13d”.
Residue numbers refer to the chain shown, from its start. In names and notes the source's numbering stands.

T1: EsCas13d, nuclease-dead (Eubacterium siraeum, UniProt B0MS50, R295A;H300A;R849A;H854A)
T1 sequence: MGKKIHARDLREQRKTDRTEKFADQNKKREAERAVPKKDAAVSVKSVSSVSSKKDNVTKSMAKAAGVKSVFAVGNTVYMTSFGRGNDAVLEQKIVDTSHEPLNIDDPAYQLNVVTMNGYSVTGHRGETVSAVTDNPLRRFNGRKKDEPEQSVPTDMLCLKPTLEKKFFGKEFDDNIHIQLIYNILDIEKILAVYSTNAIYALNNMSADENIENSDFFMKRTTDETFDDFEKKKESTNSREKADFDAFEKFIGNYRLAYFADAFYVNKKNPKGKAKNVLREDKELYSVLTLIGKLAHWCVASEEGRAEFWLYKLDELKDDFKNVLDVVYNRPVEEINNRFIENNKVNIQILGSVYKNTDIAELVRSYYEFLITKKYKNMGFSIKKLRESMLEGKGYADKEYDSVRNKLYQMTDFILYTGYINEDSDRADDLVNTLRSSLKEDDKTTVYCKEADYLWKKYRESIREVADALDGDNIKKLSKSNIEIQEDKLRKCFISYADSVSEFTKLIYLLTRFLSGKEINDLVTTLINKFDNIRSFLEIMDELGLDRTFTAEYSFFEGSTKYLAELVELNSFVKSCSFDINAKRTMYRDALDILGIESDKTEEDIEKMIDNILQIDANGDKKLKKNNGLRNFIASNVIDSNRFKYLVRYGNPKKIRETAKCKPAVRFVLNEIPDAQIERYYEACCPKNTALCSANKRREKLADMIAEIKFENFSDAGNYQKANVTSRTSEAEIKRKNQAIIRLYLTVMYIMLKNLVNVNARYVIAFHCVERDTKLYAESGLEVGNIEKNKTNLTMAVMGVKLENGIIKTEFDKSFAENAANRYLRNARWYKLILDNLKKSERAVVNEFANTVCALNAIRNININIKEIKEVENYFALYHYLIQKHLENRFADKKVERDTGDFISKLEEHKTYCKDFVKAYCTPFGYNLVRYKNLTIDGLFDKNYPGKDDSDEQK

B1: target 1 G5A,A14G (mixed)
RNA 1: CACCCGUGCAAAAAUGCAGGGGUCUAAAACUGAGCGGAUAACCUCUCUAUGG
RNA 2: GGGAAUGGAUCCACAUCUACGAAUUCGUACCAUAGAGGGGUUAUCCACUCACCGAGAUCGGAAGAGCACACGU
B2: target 1 U3A,U11A (mixed)
RNA 1: B1 RNA 1
RNA 2: B1 RNA 2 with G38A, U41A, A47G, U49A
B3: target 1 insU 3' of 14,insC 3' of 1 (mixed)
RNA 1: B1 RNA 1
RNA 2: GGGAAUGGAUCCACAUCUACGAAUUCGUACCAUAGAGAUGGUUAUCCGCUCACCCGAGAUCGGAAGAGCACACGU
B4: target 1 A1C,C7A (mixed)
RNA 1: B1 RNA 1
RNA 2: B1 RNA 2 with G38A, C45A, A47G, A51C
B5: target 1 C6G,C7A (mixed)
RNA 1: B1 RNA 1
RNA 2: B1 RNA 2 with G38A, C45A, C46G, A47G
B6: target 1 insG 3' of 19,insU 3' of 6 (mixed)
RNA 1: B1 RNA 1
RNA 2: GGGAAUGGAUCCACAUCUACGAAUUCGUACCAUGAGAGAGGUUAUCCUGCUCACCGAGAUCGGAAGAGCACACGU
B7: target 1 del9,del19 (mixed)
RNA 1: B1 RNA 1
RNA 2: GGGAAUGGAUCCACAUCUACGAAUUCGUACCAAGAGAGGUUUCCGCUCACCGAGAUCGGAAGAGCACACGU
B8: target 1 insA 3' of 15,insC 3' of 9 (mixed)
RNA 1: B1 RNA 1
RNA 2: B6 RNA 2 with G34A, A35G, G36A, A37G, G38A, U45C, C46U, U48C
B9: target 1 insU 3' of 21,insC 3' of 15 (mixed)
RNA 1: B1 RNA 1
RNA 2: GGGAAUGGAUCCACAUCUACGAAUUCGUACCUAUAGAGCAGGUUAUCCGCUCACCGAGAUCGGAAGAGCACACGU
B10: target 1 C7A,G15U (mixed)
RNA 1: B1 RNA 1
RNA 2: B1 RNA 2 with G37U, G38A, C45A, A47G
B11: target 1 U10G,A20U (mixed)
RNA 1: B1 RNA 1
RNA 2: B1 RNA 2 with A32U, G38A, U42G, A47G
B12: target 1 insG 3' of 19,insG 3' of 14 (mixed)
RNA 1: B1 RNA 1
RNA 2: B6 RNA 2 with U42G, A44U, U45A, C46U, U48C
B13: target 1 G5C,U8A (mixed)
RNA 1: B1 RNA 1
RNA 2: B1 RNA 2 with G38A, U44A, A47C
B14: target 1 insU 3' of 22,insC 3' of 8 (mixed)
RNA 1: B1 RNA 1
RNA 2: B6 RNA 2 with C31U, A32C, U33A, G34U, U48C
B15: target 1 complement block 3-8 (mixed)
RNA 1: B1 RNA 1
RNA 2: B1 RNA 2 with G38A, U44A, C45G, C46G, A47C, C48G, U49A
B16: target 1 insG 3' of 19,insG 3' of 4 (mixed)
RNA 1: B1 RNA 1
RNA 2: B6 RNA 2 with U48G, G49C, C50G
B17: target 1 A14C,G15U (mixed)
RNA 1: B1 RNA 1
RNA 2: B1 RNA 2 with G37U, G38C, A47G
B18: target 1 insC 3' of 20,insA 3' of 5 (mixed)
RNA 1: B1 RNA 1
RNA 2: B6 RNA 2 with U33C, G34U, U48G, G49A
B19: target 1 insU 3' of 22,insU 3' of 21 (mixed)
RNA 1: B1 RNA 1
RNA 2: B9 RNA 2 with C31U, U32C, A33U, U34A, A35U, G36A, A37G, G38A, C39G
B20: target 1 insG 3' of 11,insC 3' of 3 (mixed)
RNA 1: B1 RNA 1
RNA 2: B3 RNA 2 with U39G, G41U, U42G, A52C, C53A
B21: target 1 C2U,A14G (mixed)
RNA 1: B1 RNA 1
RNA 2: B1 RNA 2 with A47G, C50U
B22: target 1 insU 3' of 14,insG 3' of 1 (mixed)
RNA 1: B1 RNA 1
RNA 2: B3 RNA 2 with C53G
B23: target 1 insC 3' of 5,insC 3' of 5 (mixed)
RNA 1: B1 RNA 1
RNA 2: GGGAAUGGAUCCACAUCUACGAAUUCGUACCAUAGAGAGGUUAUCCGCCCUCACCGAGAUCGGAAGAGCACACGU
B24: target 1 G13U,C21U (mixed)
RNA 1: B1 RNA 1
RNA 2: B1 RNA 2 with C31U, G38A, G39U, A47G
B25: target 1 U10G,C21U (mixed)
RNA 1: B1 RNA 1
RNA 2: B1 RNA 2 with C31U, G38A, U42G, A47G
B26: target 1 A1U,C7A (mixed)
RNA 1: B1 RNA 1
RNA 2: B1 RNA 2 with G38A, C45A, A47G, A51U
B27: target 1 insU 3' of 14,insA 3' of 2 (mixed)
RNA 1: B1 RNA 1
RNA 2: B3 RNA 2 with C53A
B28: target 1 insC 3' of 17 (mixed)
RNA 1: B1 RNA 1
RNA 2: GGGAAUGGAUCCACAUCUACGAAUUCGUACCAUAGCAGAGGUUAUCCGCUCACCGAGAUCGGAAGAGCACACGU
B29: target 1 insA 3' of 8,insA 3' of 7 (mixed)
RNA 1: B1 RNA 1
RNA 2: B23 RNA 2 with C45A, G47A, C49G
B30: target 1 G5A,A14C (mixed)
RNA 1: B1 RNA 1
RNA 2: B1 RNA 2 with G38C
B31: target 1 C7A (mixed)
RNA 1: B1 RNA 1
RNA 2: B1 RNA 2 with G38A, C45A, A47G
B32: target 1 U8G,A18G (mixed)
RNA 1: B1 RNA 1
RNA 2: B1 RNA 2 with A34G, G38A, U44G, A47G
B33: target 1 insG 3' of 19,insA 3' of 8 (mixed)
RNA 1: B1 RNA 1
RNA 2: B6 RNA 2 with C46A, U48C
B34: target 1 insA 3' of 22,insG 3' of 14 (mixed)
RNA 1: B1 RNA 1
RNA 2: B9 RNA 2 with C31A, U32C, C39A, A40G

What follows are binders tested against T1, EsCas13d, nuclease-dead (assay: crRNA (strand 1, pre-loaded); Mg2+; 40 mM Tris-HCl pH 7.5, 150 mM NaCl, 6 mM MgCl2, 1 mM DTT, 0.1% Tween-20, 0.2 mg/ml BSA; 25 C; 10 min per concentration, then washed). Details: tags: His6-TwinStrep-SUMO cleaved; N-terminal SNAP kept (SNAP-Surface 488); label: 3' end held by stalled T7 RNA polymerase.

Binder	Kd
B1	42 ± 4 nM
B2	12.7 ± 0.7 nM
B3	42 ± 7 nM
B4	9.8 ± 0.6 nM
B5	8.9 ± 0.4 nM
B6	82 ± 9 nM
B7	86 ± 33 nM
B8	9 ± 0.9 nM
B9	55 ± 7 nM
B10	19.6 ± 2.1 nM
B11	60 ± 18 nM
B12	75 ± 16 nM
B13	38 ± 5 nM
B14	~100 nM
B15	9.9 ± 0.4 nM
B16	34.6 ± 1.9 nM
B17	35 ± 6 nM

Binder	Kd
B18	7.3 ± 1.1 nM
B19	85 ± 28 nM
B20	51 ± 8 nM
B21	15 ± 0.7 nM
B22	45 ± 4 nM
B23	25.7 ± 3.2 nM
B24	10.5 ± 0.9 nM
B25	11.7 ± 0.8 nM
B26	9.4 ± 1 nM
B27	43 ± 6 nM
B28	50 ± 11 nM
B29	11.3 ± 0.5 nM
B30	81 ± 34 nM
B31	7.8 ± 0.4 nM
B32	66 ± 21 nM
B33	57 ± 7 nM
B34	21.7 ± 3.2 nM
